From publication doi:10.1101/2024.10.11.617762

Target: SARS-CoV-2 nucleocapsid C-terminal domain (N-CTD) (SARS-CoV-2, UniProt P0DTC9 247-364)
Assay: fluorescence intensity

UCUCUAAACG (ssRNA) [FAM-labelled 10-mer TRS RNA probe]
binding result: binds
